Target: Kluyveromyces marxianus Tor (KmTor), full-length (Kluyveromyces marxianus)
Test: SEC-MALS; 100 µl of 1 mg/ml KmTor-Lst8 complex on Superdex S200 10/300, 50 mM Tris pH 8.8 (23 °C), 300 mM NaCl, 0.3% CHAPS, 1 mM TCEP

Sequence of Kluyveromyces marxianus Tor (KmTor), full-length (Kluyveromyces marxianus) (main, as listed by the source): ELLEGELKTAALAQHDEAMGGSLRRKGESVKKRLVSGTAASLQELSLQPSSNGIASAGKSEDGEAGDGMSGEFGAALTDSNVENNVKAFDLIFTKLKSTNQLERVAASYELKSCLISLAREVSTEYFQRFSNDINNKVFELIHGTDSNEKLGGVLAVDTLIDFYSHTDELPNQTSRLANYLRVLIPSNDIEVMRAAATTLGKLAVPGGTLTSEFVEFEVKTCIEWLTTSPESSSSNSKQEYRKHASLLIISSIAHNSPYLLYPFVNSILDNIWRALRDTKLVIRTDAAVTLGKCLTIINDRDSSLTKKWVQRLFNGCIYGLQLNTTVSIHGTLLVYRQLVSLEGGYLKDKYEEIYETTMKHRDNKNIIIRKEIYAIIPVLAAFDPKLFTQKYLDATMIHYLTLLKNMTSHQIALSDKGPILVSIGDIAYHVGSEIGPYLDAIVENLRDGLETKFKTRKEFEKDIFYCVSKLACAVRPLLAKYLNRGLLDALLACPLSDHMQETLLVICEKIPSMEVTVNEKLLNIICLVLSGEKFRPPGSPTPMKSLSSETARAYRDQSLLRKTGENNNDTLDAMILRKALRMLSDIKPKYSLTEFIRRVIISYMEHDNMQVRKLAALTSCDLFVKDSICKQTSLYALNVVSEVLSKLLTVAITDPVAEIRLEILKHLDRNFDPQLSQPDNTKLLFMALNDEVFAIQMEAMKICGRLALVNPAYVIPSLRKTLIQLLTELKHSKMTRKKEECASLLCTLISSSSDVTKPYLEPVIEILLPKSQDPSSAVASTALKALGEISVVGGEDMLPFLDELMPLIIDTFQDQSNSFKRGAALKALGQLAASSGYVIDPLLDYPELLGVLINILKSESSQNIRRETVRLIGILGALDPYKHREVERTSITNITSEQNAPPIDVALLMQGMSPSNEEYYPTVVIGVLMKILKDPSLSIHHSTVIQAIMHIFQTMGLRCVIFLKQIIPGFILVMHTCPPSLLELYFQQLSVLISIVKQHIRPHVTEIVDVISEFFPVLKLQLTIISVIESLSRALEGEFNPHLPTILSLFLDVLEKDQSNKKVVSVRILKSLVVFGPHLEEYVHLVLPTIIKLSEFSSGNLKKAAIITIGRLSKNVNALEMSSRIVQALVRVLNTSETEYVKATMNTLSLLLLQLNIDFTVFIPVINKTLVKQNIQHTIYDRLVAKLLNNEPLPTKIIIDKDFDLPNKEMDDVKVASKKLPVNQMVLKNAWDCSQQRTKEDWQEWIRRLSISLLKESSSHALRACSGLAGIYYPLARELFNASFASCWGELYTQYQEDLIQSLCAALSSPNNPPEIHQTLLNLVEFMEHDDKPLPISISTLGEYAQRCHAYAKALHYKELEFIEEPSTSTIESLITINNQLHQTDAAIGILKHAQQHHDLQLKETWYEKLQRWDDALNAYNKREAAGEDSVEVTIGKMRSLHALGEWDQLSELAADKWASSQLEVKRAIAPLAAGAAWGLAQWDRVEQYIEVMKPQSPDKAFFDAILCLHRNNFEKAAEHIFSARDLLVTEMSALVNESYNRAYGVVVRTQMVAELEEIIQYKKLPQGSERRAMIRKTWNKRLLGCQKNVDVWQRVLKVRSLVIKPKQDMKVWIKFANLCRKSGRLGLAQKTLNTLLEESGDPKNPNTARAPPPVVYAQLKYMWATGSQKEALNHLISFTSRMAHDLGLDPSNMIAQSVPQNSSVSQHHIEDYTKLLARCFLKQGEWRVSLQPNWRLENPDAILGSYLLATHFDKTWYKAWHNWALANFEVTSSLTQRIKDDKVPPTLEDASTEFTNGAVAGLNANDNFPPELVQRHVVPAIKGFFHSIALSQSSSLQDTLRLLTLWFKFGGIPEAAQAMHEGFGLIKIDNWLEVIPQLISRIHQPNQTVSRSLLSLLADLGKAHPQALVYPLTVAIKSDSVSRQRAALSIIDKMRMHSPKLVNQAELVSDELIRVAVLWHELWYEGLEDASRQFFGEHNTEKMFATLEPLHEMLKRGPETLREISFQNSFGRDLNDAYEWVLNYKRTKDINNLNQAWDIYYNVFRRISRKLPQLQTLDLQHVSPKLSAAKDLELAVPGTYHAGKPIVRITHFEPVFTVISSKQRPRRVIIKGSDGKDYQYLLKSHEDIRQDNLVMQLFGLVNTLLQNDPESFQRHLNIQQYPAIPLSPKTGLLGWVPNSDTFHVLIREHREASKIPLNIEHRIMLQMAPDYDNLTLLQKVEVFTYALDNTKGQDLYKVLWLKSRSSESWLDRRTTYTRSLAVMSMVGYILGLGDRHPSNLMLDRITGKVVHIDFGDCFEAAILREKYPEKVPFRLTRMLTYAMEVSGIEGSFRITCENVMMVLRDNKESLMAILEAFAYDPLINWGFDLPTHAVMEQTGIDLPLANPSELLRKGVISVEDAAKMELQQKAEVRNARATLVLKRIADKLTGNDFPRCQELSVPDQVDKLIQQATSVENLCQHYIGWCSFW

Row | Substance | stoichiometry N
1 | Kluyveromyces marxianus Lst8 (KmLst8), full-length (natural protein) | 1
2 | Kluyveromyces marxianus Tor (KmTor), full-length | 2

Reference: article PMC4833857
